From article PMC4240654

How the values were obtained:
[1] = target: SC rFVIIIFc R1645A/R1648A (human)
[2] = target: BDD rFVIII (recombinant B-domain-deleted factor VIII, ReFacto / Xyntha) (UniProt P00451)
[3] = target: SC rFVIIIFc (single chain recombinant factor VIII Fc fusion protein) (human)
[4] = target: rFVIIIFc (recombinant factor VIII Fc fusion protein) (human) (UniProt P00451)

- Apparent K D (FIXa-FVIIIa affinity), FXa generation assay on synthetic phospholipids, thrombin-activated SC rFVIIIFc R1645A/R1648A [1]: 3.8 nM
- Apparent K D (FIXa-FVIIIa affinity), FXa generation assay on synthetic phospholipids, thrombin-activated BDD rFVIII (ReFacto) [2]: 4.5 nM
- Apparent K D (FIXa-FVIIIa affinity), FXa generation assay on synthetic phospholipids, thrombin-activated SC rFVIIIFc [3]: 4.1 nM
- Apparent K D (FIXa-FVIIIa affinity), FXa generation assay on synthetic phospholipids, thrombin-activated rFVIIIFc [4]: 5.5 nM
Substance: FIXa (activated factor IX) (enzyme)
